Data reported in paper doi:10.1101/276808 (bioRxiv, 2018).
Where “and” joins values, the source holds several entries; their conditions need not be identical. Equal values may be shown once.

Molecular target: the molecule itself
Assay: native gel or EMSA

B1: Lrp (natural protein, Escherichia coli, UniProt P0ACJ0 1-164, looked up)
chain: MVDSKKRPGKDLDRIDRNILNELQKDGRISNVELSKRVGLSPTPCLERVRRLERQGFIQGYTALLNPHYLDASLLVFVEITLNRGAPDVFEQFNTAVQKLEEIQECHLVSGDFDYLLKTRVPDMSAYRKLLGETLLRLPGVNDTRTYVVMEEVKQSNRLVIKTR
  stoichiometry N: 8 and 16
